Assay results reported in the nanobody polyreactivity screen of Harvey et al. (2022).

Assay: yeast display, Sf9 membrane polyspecificity reagent, FACS + sequencing; frameworks hold sequencing errors
Summary of the method: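 Genes from sorted yeast were amplified by colony PCR, read by MiSeq 2 × 250 sequencing and filtered on CDR length. These cells carried a synthetic nanobody library in Saccharomyces cerevisiae BJ5465 and were sorted by FACS into low and high (top ~1%) gates on anti-HA and streptavidin fluorescence. Polyreactivity is labelled according to the gate of origin.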

Row | Sequence | polyreactivity (PSR sort gate)
1 | QVQLLESGGGLVQAGGSLRLSCAASGRTFRYNAMGWYRQAPGKERELVAAITGSGGSTYYADSVKGRFTISRDNAKNTVYLQMNSLKPEDTAVYYCARAYSYRLYPYGSWGQGTQVTVSS | high polyreactivity
2 | QVQLLESGGGLVQAGGSLRLSCAASGRTFYGYTMGWYRQAPGKEWELVAAISTGGGSTYYADSVKGRFTISRDTAKNTVYLQMNSMKREDTAVYYCAARGGSYSFRRYNFWGQGTQVTVSS | high polyreactivity
3 | QVQLLESGGGLVQAGGSLRLSCAASGRTIRNNTMGWYRQAPGKERELVARITWSGGSTYYADSVKGRFTISRDNAKNNVYLKMNRLKQEDTAVYYCAAVPILVYLWFQSYTGDYDYWGQGTQVTVSS | low polyreactivity
4 | QVQLLESGGGLVQAGGSLRLSCAASGSIFRGYAMGWYRKAPGKERELVAAINWSGSSTYYADSVKGRFTISRDNAKKTVYLQMNSLKPEDTAVYYCARVYYNRNLGGDYWGQGTQVTVSS | low polyreactivity
5 | QVQLLESGGGLVQAGGSLRLSCAASGSIFSYNAMGWYRQAPGTERELVAAITSGDSTNYADSVKGRFTISRDNAKNTVYLQMNSLKPEDTAVYYCAADPVLPAFGYVGTSLGYYWGQGTQVTVSS | low polyreactivity
6 | QVQLLESGGGLVQAGGSLRLSCAASGSNFYVNAMGWYRQAPGKERELVAAITSTGTTHYADSVKGRFTISRDNAKNTDYLHMNSLKPEDTAVYYCAAYSRYQSRRYYYWGQGTQVTVSS | high polyreactivity
7 | QVQLLESGGGLVQAGGSLRLSCAASGSSFSHYTMGWYRQAPGKERELVAAINYGGASTYYADSVKGRFTISRDNAKNTVYLQMNSLKPEYTAVYYCAAANRPSEQDNYWGQGTQVTVSS | low polyreactivity
8 | QVQLLESGGGLVQAGGSLRLSCAASGSTFGVYAMGWYRQAPGKEREFVAAINARGTRTRYADSVKGRFTISRDNAKNTVYLQMNSLKPDDTAVYYCAAVWYGYYSIDTYGYWGQGTQVTVSS | high polyreactivity
9 | QVQLLESGGGLVQAGGSLRLSCAASGSTFNVYAMGWYRQAPGKERELVAAINWSGGNTYYADSVKGRFTISRDNAKNTVYLQMNSLNPEDTAVDYCNADGFVGTPSVDYDYWGQGTQVTVSS | low polyreactivity
10 | QVQLLESGGGLVQAGGSLRLSCAASGSTFQRYVMGWYRQAPGKERELVATITKSGGSTYYADSVKGRFTISRDIAKNTVYLQMNSLKPEDTAVYNCAAYLQWAFRGYYHWGQGTQVTVTS | high polyreactivity
11 | QVQLLESGGGLVQAGGSLRLSCAASGSTFYFNAMGWYSQAPGKDSELVAGIRYSGSSTYYADSVKGRFTISRDNAKNTVYLQMHSLKPEDTAVYYCAASLWRWRFSRFGYWGQGTQVTVSS | high polyreactivity
12 | QVQLLESGGGLVQAGGSLRLSCAASGSTFYINTMGWSRQAPGKERELVAAISWTGGRTYYADSVKGRFTISRDNAKNTVYLQMHSLKPEDTAVYYCAAYYNIPDRRRVGYDYWGQGTQVTVSS | high polyreactivity
13 | QVQLLESGGGLVQAGGSLRLSCAASGYFFSDNTMGWYRQAPGKERELVAAITSGGSSYYADSVKGGFTISRDIAKNTVYLQMNSLKQEDTAVYYCDKDVLHVRRVSGQYYSVDYWGQGTQVTVSS | low polyreactivity
14 | QVQLLESGGGLVQAGGSLRLSCAASGYNFGNYAMGWYRQAPGKERELVAAITSRGGRTYYADSVKGRFTISRDNAKNSFYLQMNSLIPVDTGVYYCYRAVTTKDGYWGQCTQVTVSS | high polyreactivity
15 | QVQLLESGGGLVQAGGSLRLSCAATGRIFFYGMGWYRQAPGNETELVATITSVSNTYYADSVKGRFTISRDNAKNTGYLLMNSLKPEDTAVYYCAARPDRYRYRYGYWGQGTQVTVSS | high polyreactivity
16 | QVQLLESGGGLVQAGGSLRLSCAPSGFTFLYYAMGWYIQAPGKERELVAVISRSGGRTYYADSVKGRFTISRDNAKNTVYLLMNSLKPEDTAVYYCAAALGVALNDYWGQGTQVNVSS | high polyreactivity
17 | QVQLLESGGGLVQAGGSLRLSCAPSGRIFGYYAMGWYRQEPGKERELVAAISRGGSTNYADSVKGRFTISRDNAKNTVYLQMNSLKPEDTAVYYCAALVYRSYNNYYWGQGTQVTVSS | high polyreactivity
18 | QVQLLESGGGLVQAGGSLRLSSAASGRIFLGYTMGWYRPAPGNERELVAAIRLSGGTTRYADSVKGRFTISRDNAKNTVYLQMYSLKPEDTAVYYCAARDRRTYSLYYWGQGSQVTVSS | high polyreactivity
19 | QVQLLESGGGLVQAGRSLRLSCAASGRIFVYYAMGWYRQAPGQERELVATISWSGGSTYYADSVKGRFTISRDNAKNTVYLELNSLKPEDTAVYYCAAEKYISYYSVKRQENGYWGQGSQVTVSS | low polyreactivity
20 | QVQLLESGVGLVQAGGILRLSCAASGITFSRYTMGWYRQAPGKERELVAANSSAGNTYYADSVNGRFTISRDNAKNTVYLQMNSLKPEDTAVYYCAREYTYYPRWVGYDAYGEDYWGQGTQVTVSS | low polyreactivity
21 | QVQLLESRGGLVQAGGSLRLSCAASGSNFDVYDMGWYRQAPGKERELVACISWDGDRTYYADSVKGRFTISRDNAKNTVYLQMKSLKPEDTAVYYCAVDSASDTIYDYWGQGTQVTVSS | low polyreactivity
22 | QVQLLESVGGLDQAGGSLRLSCAASGRTFKVYAMGWYRKATVKERELVAAISFSGGTTYYADSVKGRFTISRDNAKNTVYLQMNSLKQEDTAVSYCAAKRYGEYRARGYYYWGQGTQVTVSS | high polyreactivity

Row | Sequence | polyreactivity (PSR sort gate)
23 | QVQLLESVGGLVQAGGSLRLSCDASGYTYCGYAMGSYRQAPGKERELVAAISRSGGSTYYADTVKGRFTISRDHAKNTVYLQMNSLKPEDTAVYYCNARTEDYDGANNYWGHGTQVTVSS | low polyreactivity
24 | QVQLLETGGGLVQAGGSLRLSCAPSGFTIYRYAMGWYKQAPGKERELVAAISSGTSTYYADTVKGRFTISRDNAKKTVYLQINSLKPEVTEVYYCAVAGVSLYGTLYDYWGLGTQVTVSS | high polyreactivity
25 | QVQLLETGGGLVQAGGSLRLSCAPSGRIFRQYVMGWSRQAPGKERELVAAISRSGGTTYYADSVKGRFTISRDNAKNTVYLQMNILKPEDTAVYYCAASFRGQIVGYWGQGTQVTLSS | high polyreactivity
26 | QVQLQDSGGGLVQAGGSLRLSCAASGTIIWYSDLGWYRQAPGKERKFVAGIGFGSNSNFADSVRGRFTISRDNAKITVYLQMNSLKPEDTAVYYCEAVWFDYSTHRYWGQGTQVTVCS | high polyreactivity
27 | QVQLQDSGGGLVQAGGSLRQRCAASGYISSLAAMGWYRQAPGKERDLVAGNDLGTITNYADSVKGSLTISRDNAKNTVYLQMNSLIPEDTAVYYCAPTWYYHYNDWKHWYEYGYWGQGTQVTVSS | low polyreactivity
28 | QVQLQEGGGGLVQAGGSLRLSCAASGYIFNGDWKGWYRQAPGKERELVATINYGATTNYADSVKGRFTISRDNAKNTVYLQMNSLKPEDTAVYYCAVGGHGAQLYVYWGQGTQVTVSN | high polyreactivity
29 | QVQLQERAAWCRRAGSLRLSCAASGNISDYYFMGWYRQAPGKERELVAAIAPGSNTYYADSVKGRFTISRDNAKNTVYLQMNSLKPEDTAVCFCAANSTQYSWFDYWGQGTQVPVSS | low polyreactivity
30 | QVQLQERGGGLVQAGGSLRLTCAASGTISDSGLMGWYRQAPGKERELVAGISSGGITNYADSVKGRFTISRDNANNTVYLQMNSLKPEDNAVFWGQGSQVTVSS | low polyreactivity
31 | QVQLQERGGGLVQVGGSKRLSCAASGNIFYNYSMGWYRHAQGKEREFDDTINHGTSINYADSVKGRFTISRDKATNTGYLEMNSLKPEDTAVFYCAADRSWTDNLFYWGQGSQVTVSS | low polyreactivity
32 | QVQLQESAGGLVQAGGSLRRSCAASGSIFSNCAMGWYRQTPGKERELVASITAGGNNNYADSVKGRFTISRDNAKNTVYLPMNSLKPEETAVYYCNRRYPGPDSFEHYYYYRYDYWGQGTQVTVSS | low polyreactivity
33 | QVQLQESAGGRQPAPELRGERLYFWLLLMGWYRQAPGEERELVAGINYGASTNYSDSVKGRFTISRDNARNTVYLKMNSLKPGDTAVYYCAVWQPVLIWFYYWGQGTQVTVSS | high polyreactivity
34 | QVQLQESCGGLVQVGGSLRLSCAASVTIFIYGFLGWYRQAPGKERELVASINLGGITNYADSVKGRFTISRDNANNTVYLQMISLKPEDTAVYYCAAYVVTGQNYGYWGQGTQVTVSS | low polyreactivity
35 | QVQLQESDGGLVQAGGSLRLSCAASGSISPQYYRGWYRQAPGKEREFVAISKGTSTYYADSVKGRLTISRVNAKNTVYLQMNSLKPEDTAVYCCAAGRWLQKVHAYWDQGTQVTVSS | low polyreactivity
36 | QVQLQESGDGLVQAGGSLRLSSAASGTIFSDYGMGGYRQAPGKERELLAGISDGCNTNYTDSVKGRFTISRDNAHRVSADELPETGVYRGVLLRGCERWLLFYVYWGQGTQVTVSS | high polyreactivity
37 | QVQLQESGDGLVQAVGSLRLSCAASGYISGKYYMGWYRKAPGNERGLLDGIDACGSRTNYADCVKGRFTISRDNAHNTVYLQMNSLKPEDTAVYYCAARPDGDRLFSYWGQGTQVPVSS | low polyreactivity
38 | QVQLQESGGGLAQAGGCLRLSCAASGTIFPADSMGWYRQAPGIERELVAGITSGANTYYADSVKGRFTISHDNAKNTVYLQMDSLIPEDIAVYYCAAPGSSTYDLEYWGQGTQGTVSS | high polyreactivity
39 | QVQLQESGGGLAQAGGSLRLSCAASGTIFPADSMGWYRQAPGKERELVAGITSGANTYYADSVKGRFTISHDNAKYTVYLQMDSLIPEDIAVYYCAAPGSSTYDLEYWGQGTQVTVSS | high polyreactivity
40 | QVQLQESGGGLEPAGGSLRLSCAASGTISVHASMGWYRQAPGKERELVAGITDGANTYYADSVKGRFTISRDNSKNTVYLQMNSLKPEDTAVYYCAAYYGTAFHFTYWCQGTQVTVSS | low polyreactivity
41 | QVQLQESGGGLEQAGGSLRLSCAASGYISDIGTMGWYRQAPGKEREFVATIVVGSTTNYADSVKGRFTISRDNAKNTVYLQPQSGRYRGVLLRAWLLAVGKFTYWGQGTQETVSS | low polyreactivity
42 | QVQLQESGGGLLQADGSLRLSCAASGTIFTQSYMGWYRQAPGKEREFVAGISNGTNTNYGDSVKGRFTISRDNAKNTVYLQMNSLKLEDTAVYYCAVKGFYVDVLAYWGQGTHVTVSS | high polyreactivity
43 | QVQLQESGGGLLQAGGSLRLSCAASGIIFDNPNKGWYRQAPGKERDLVATINSGATTNYADSVKGRFTISRDNAKNTVYLQMNSLIPVDTAVYYCAVDLSPTYFYYWGQGTQVTVSS | high polyreactivity
